Experimental findings from US20180009908 are described below.

Positions count from the first letter of the chain named.

In series [1] the target is matuzumab HC_7.8_B + matuzumab LC (IgG1). Briefly: LCMS, IgG1 BsAb co-expression in HEK293F.
For series [2], the target named is BHA10 HC_7.8_B + BHA10 LC (IgG1). Briefly: LCMS, IgG1 BsAb co-expression in HEK293F.
In series [3] the target is matuzumab HC_7.8_B + matuzumab LC (IgG1). Description: LCMS, IgG1 BsAb co-expression; HCA/HCB heterodimer carrying two LC1.
Series [4] concerns the target BHA10 HC_7.8_B + BHA10 LC (IgG1). The series is described as above.
Series [5] is described as follows: LCMS, IgG1 BsAb co-expression; HCA homodimer species.
Series [6] concerns the target matuzumab HC_7.8_B + matuzumab LC (IgG1). Description: LCMS, IgG1 BsAb co-expression; HCA/HCB heterodimer carrying two LC2.
For series [7], the target named is BHA10 HC_7.8_B + BHA10 LC (IgG1). The series is described as above.
The target in series [8] is matuzumab HC_7.8.60_B + matuzumab LC (IgG1). Description: LCMS, IgG1 BsAb co-expression in HEK293F.
Series [9] concerns the target BHA10 HC_7.8.60_B + BHA10 LC (IgG1). Briefly: LCMS, IgG1 BsAb co-expression in HEK293F.
Series [10] has as its target matuzumab HC_7.8.60_B + matuzumab LC (IgG1). Briefly: LCMS, IgG1 BsAb co-expression; HCA/HCB heterodimer carrying two LC1.
In series [11] the target is BHA10 HC_7.8.60_B + BHA10 LC (IgG1). The series is described as above.
Series [12] has as its target matuzumab HC_7.8.60_B + matuzumab LC (IgG1). Description: LCMS, IgG1 BsAb co-expression; HCA/HCB heterodimer carrying two LC2.
In series [13] the target is BHA10 HC_7.8.60_B + BHA10 LC (IgG1). The description is as above.
The target of series [14] is matuzumab HC_20.8_B + matuzumab LC (IgG1). Description: LCMS, IgG1 BsAb co-expression in HEK293F.
In series [15] the target is matuzumab HC_20.8.34_B + matuzumab LC (IgG1). Description: LCMS, IgG1 BsAb co-expression in HEK293F.
In series [16] the target is BHA10 HC_20.8_B + BHA10 LC (IgG1). Briefly: LCMS, IgG1 BsAb co-expression in HEK293F.
Series [17] addresses matuzumab HC_20.8.37_B + matuzumab LC (IgG1). Briefly: LCMS, IgG1 BsAb co-expression in HEK293F.
The target of series [18] is BHA10 HC_20.8.34_B + BHA10 LC (IgG1). Briefly: LCMS, IgG1 BsAb co-expression in HEK293F.
The target in series [19] is BHA10 HC_20.8.37_B + BHA10 LC (IgG1). Briefly: LCMS, IgG1 BsAb co-expression in HEK293F.
Series [20] has as its target matuzumab HC_20.8_B + matuzumab LC (IgG1). Description: LCMS, IgG1 BsAb co-expression; HCA/HCB heterodimer carrying two LC1.
The target of series [21] is matuzumab HC_20.8.34_B + matuzumab LC (IgG1). The description is as above.
Series [22] addresses BHA10 HC_20.8_B + BHA10 LC (IgG1). Described as above.
The target of series [23] is matuzumab HC_20.8.37_B + matuzumab LC (IgG1). The description is as above.
Series [24] has as its target BHA10 HC_20.8.34_B + BHA10 LC (IgG1). The series is described as above.
Series [25] concerns the target BHA10 HC_20.8.37_B + BHA10 LC (IgG1). The description is as above.
Series [26] deals with matuzumab HC_20.8_B + matuzumab LC (IgG1). Briefly: LCMS, IgG1 BsAb co-expression; HCA/HCB heterodimer carrying two LC2.
Series [27] has as its target matuzumab HC_20.8.34_B + matuzumab LC (IgG1). The description is as above.
Series [28] addresses BHA10 HC_20.8_B + BHA10 LC (IgG1). The series is described as above.
The target of series [29] is matuzumab HC_20.8.37_B + matuzumab LC (IgG1). Described as above.
The target in series [30] is BHA10 HC_20.8.34_B + BHA10 LC (IgG1). The description is as above.
The target in series [31] is BHA10 HC_20.8.37_B + BHA10 LC (IgG1). The series is described as above.
Series [32] can be described thus: LCMS, IgG1 BsAb co-expression; HCA (MetMAb) homodimer species.
For series [33], the target named is matuzumab HC_7.8_A + matuzumab LC (IgG1). Briefly: LCMS, IgG1 BsAb co-expression in HEK293F.
The target is the same in series [34]. Description: LCMS, IgG1 BsAb co-expression; HCA/HCB heterodimer carrying two LC1.
For series [35] the target is unchanged. Briefly: LCMS, IgG1 BsAb co-expression; HCA/HCB heterodimer carrying two LC2.
Series [36] in a line: LCMS, IgG1 BsAb co-expression; HCB (matuzumab) homodimer species.
Where [37] appears, read: pertuzumab × matuzumab bispecific.

B1: pertuzumab HC_7.8_A + pertuzumab LC (IgG1) (protein)
chain 1: EVQLVESGGGLVQPGGSLRLSCAASGFTFTDYTMDWVRKAPGKGLEWVADVNPNSGGSIYNQEFKGRFTLSVDRSKNTLYLQMNSLRAEDTAVYYCARNLGPSFYFDYWGQGTLVTVSSASTKGPSVFPLAPSSKSTSGGTAALGCLVKDYFPEPVTVSWNSGALTSGVATGPAVLQSSGLYSLSSVVTVPSSSLGTQTYICNVNHKPSNTKVDKKVEPKSCDKTHTCPPCPAPELLGGPSVFLFPPKPKDTLMISRTPEVTCVVVDVSHEDPEVKFNWYVDGVEVHNAKTKPREEQYQSTYRVVSVLTVLHQDWLNGKEYKCKVSNKALPAPIEKTISKAKGQPREPQVYTLPPSREEMTKNQVSLTCLVKGFYPSDIAVEWESNGQPENNYKTTPPVLMSDGSFFLASKLTVDKSRWQQGNVFSCSVMHEALHNHYTQKSLSLSPGK
chain 2: RIQMTQSPSSLSASVGDRVTITCKASQDVSIGVAWYQDKPGKAPKLLIYSASYRYTGVPSRFSGSGSGTDFTLTISSLQPEDFATYYCQQYYIYPYTFGQGTKVEIKGQPKAAPSVTLFPPSSEELQANKATLVCYISDFYPGAVTVAWKADSSPVKAGVETTTPSKQSNNKYAAWSYLSLTPEQWKSHRSYSCQVTHEGSTVEKTVAPTEC
Consider B1, for which the % AB (LC1/LC2) (correct IgG BsAb assembly) worked out at 95.4% in [1] and 69.3% in series [2]. The % AB (2x LC1) (incorrect assembly) turned out to be 0% in [3] and 15.6% in series [4]. The % AA Homodimer (incorrect assembly) was found to be 0% in series [5] (pertuzumab × BHA10 bispecific) and 0.5% in series [5] (setting [37]). In addition, the % AB (2x LC2) (incorrect assembly) worked out at 1.2% in series [6] and 0% in [7].

B2: pertuzumab HC_7.8.60_A + pertuzumab LC (IgG1) (protein)
chain 1: B1 chain 1 with K362D
chain 2: B1 chain 2
B2: the values for the % AB (LC1/LC2) (correct IgG BsAb assembly) in series [8] and in series [9] were 98.1% and 95.2%, respectively. Also, the % AB (2x LC1) (incorrect assembly) in series [10] and in [11] was 0% throughout. The figures for the % AA Homodimer (incorrect assembly) in series [5] (pertuzumab × BHA10 bispecific) and in series [5] (setting [37]) were 0.7% and 0.6%, respectively. The % AB (2x LC2) (incorrect assembly) in series [12] came out at 0%; in series [13] it was 2.5%.

B3: pertuzumab HC_20.8.26_A + pertuzumab LC (IgG1) (protein)
chain 1: B1 chain 1 with Y351S, T368M, K372Y, M401D, A409Y, K411V
chain 2: B1 chain 2
As for B3, the % AB (LC1/LC2) (correct IgG BsAb assembly) in series [14] was 95.2%; in series [15], 96.9%; in [16] it was 96.9%; in series [17], 97.6%; in series [18], 90.3%; in series [19], 89.6%. The % AB (2x LC1) (incorrect assembly) came to 0% in series [20]; 0% in [21]; 0% in [22]; 0% in series [23]; 9.7% in series [24]; 7.5% in series [25]. For the same protein, the % AB (2x LC2) (incorrect assembly) in series [26], in series [27], in series [28], in series [29], in [30] and in series [31] was 0% throughout.

B4: MetMAb HC_7.8_B + MetMAb LC (IgG1) (protein)
chain 1: EVQLVESGGGLVQPGGSLRLSCAASGYTFTSYWLHWVRKAPGKGLEWVGMIDPSNSDTRFNPEFKDRFTISADTSKNTAYLQMNSLRAEDTAVYYCATYRSYVTPLDYWGQGTLVTVSSASTKGPSVFPLAPSSKSTSGGTAALGCLVKDYFPEPVTVSWNSGALTSGVATGPAVLQSSGLYSLSSVVTVPSSSLGTQTYICNVNHKPSNTKVDKKVEPKSCDKTHTCPPCPAPELLGGPSVFLFPPKPKDTLMISRTPEVTCVVVDVSHEDPEVKFNWYVDGVEVHNAKTKPREEQYQSTYRVVSVLTVLHQDWLNGKEYKCKVSNKALPAPIEKTISKAKGQPREPQVYTLPPSREEMTKNQVSLVCLVKGFYPSDIAVEWESNGQPENNYKTTPPVLDSDGSFFLYSVLTVDKSRWQQGNVFSCSVMHEALHNHYTQKSLSLSPGK
chain 2: RIQMTQSPSSLSASVGDRVTITCKSSQSLLYTSSQKNYLAWYQDKPGKAPKLLIYWASTRESGVPSRFSGSGSGTDFTLTISSLQPEDFATYYCQQYYAYPWTFGQGTKVEIKGQPKAAPSVTLFPPSSEELQANKATLVCYISDFYPGAVTVAWKADSSPVKAGVETTTPSKQSNNKYAAWSYLSLTPEQWKSHRSYSCQVTHEGSTVEKTVAPTEC
B4 displayed a % AA Homodimer (incorrect assembly) in series [32] of 0%. For the same protein, the % AB (LC1/LC2) (correct IgG BsAb assembly) in series [33] was found to be 100%. For the same protein, the % AB (2x LC1) (incorrect assembly) in series [34] was 0%. Further, the % AB (2x LC2) (incorrect assembly) in series [35] was determined as 0%.

B5: matuzumab HC_7.8.60_A + matuzumab LC (IgG1) (protein)
chain 1: QVQLVQSGAEVKKPGASVKVSCKASGYTFTSHWMHWVRYAPGQGLEWIGEFNPSNGRTNYNEKFKSKATMTVDTSTNTAYMELSSLRSEDTAVYYCASRDYDYDGRYFDYWGRGTLVTVSSASTKGPSVFPLAPCSKSTSGGTAALGCLVKDYFPEPVTVSWNSGALTSGVHTFPAVLQSSGLYSLSSVVTVPSSSLGTQTYICNVNHKPSNTKVDKKVEPDSGDKTHTCPPCPAPELLGGPSVFLFPPKPKDTLMISRTPEVTCVVVDVSHEDPEVKFNWYVDGVEVHNAKTKPREEQYNSTYRVVSVLTVLHQDWLNGKEYKCKVSNKALPAPIEKTISKAKGQPREPQVYTLPPSREEMTDNQVSLTCLVKGFYPSDIAVEWESNGQPENNYKTTPPVLMSDGSFFLASKLTVDKSRWQQGNVFSCSVMHEALHNHYTQKSLSLSPGK
chain 2: DIQMTQSPSSLSASVGDRVTITCSASSSVTYMYWYQRKPGDAPKLLIYDTSNLASGVPSRFSGSGSGTDYTFTISSLQPEDIATYYCQQWSSHIFTFGQGTKVEIKRTVAAPSVFIFPPSKEQLKSGTASVVCLLNNFYPREAKVQWKVDNALQSGNSQESVTEQDSKDSTYSLSSTLTLSKADYEKHKVYACEVTHQGLSSPVTKSFNRGEC
Turning to B5, in [36], the % BB Homodimer (incorrect assembly) is 0%.
